Laboratory results: patent US20250276077A1, “EPHA2 ANTIBODIES” (Immunome, Inc., priority 2022, published 2025)

Experiments:
[1] = target: Human EphA2 (ephrin receptor A2), native, in human tumor tissue (human) (UniProt P29317); test: IF tumor tissue RCC-papillary, 0.1 ug/ml
[2] = target: Human EphA2 (ephrin receptor A2), native, in human tumor tissue (human) (UniProt P29317); test: IF tumor tissue STS, 0.3 ug/ml
[3] = target: Human EphA2 (ephrin receptor A2), native, in human tumor tissue (human) (UniProt P29317); test: IF tumor tissue PANC, 0.1 ug/ml
[4] = target: Human EphA2 (ephrin receptor A2), native, in human tumor tissue (human) (UniProt P29317); test: IF tumor tissue RCC-papillary, 1 ug/ml
[5] = target: Human EphA2 (ephrin receptor A2), native, in human tumor tissue (human) (UniProt P29317); test: IF tumor tissue MELA, 30 ug/ml
[6] = target: Human EphA2 (ephrin receptor A2), native, in human tumor tissue (human) (UniProt P29317); test: IF tumor tissue NSCLC-SQ, 30 ug/ml
[7] = target: Human EphA2 (ephrin receptor A2), native, in human tumor tissue (human) (UniProt P29317); test: tissue staining of human cancer samples, 10 ug/ml
[8] = target: Human EphA2 (ephrin receptor A2), native, in human tumor tissue (human) (UniProt P29317); test: tissue staining of human cancer samples, 3 ug/ml
[9] = target: Human EphA2 (ephrin receptor A2), native, in human tumor tissue (human) (UniProt P29317); test: IF tumor tissue Uterine, 30 ug/ml
[10] = target: Human EphA2 (ephrin receptor A2), native, in human tumor tissue (human) (UniProt P29317); test: IF tumor tissue MELA, 0.3 ug/ml
[11] = target: Human EphA2 (ephrin receptor A2), native, in human tumor tissue (human) (UniProt P29317); test: IF tumor tissue URO, 0.1 ug/ml
[12] = target: Human EphA2 (ephrin receptor A2), native, in human tumor tissue (human) (UniProt P29317); test: IF tumor tissue URO, 1 ug/ml
[13] = target: Human EphA2 (ephrin receptor A2), native, in human tumor tissue (human) (UniProt P29317); test: IF tumor tissue PANC, 1 ug/ml
[14] = target: Human EphA2 (ephrin receptor A2), native, in human tumor tissue (human) (UniProt P29317); test: IF tumor tissue PANC, 0.3 ug/ml
[15] = target: Human EphA2 (ephrin receptor A2), native, in human tumor tissue (human) (UniProt P29317); test: IF tumor tissue ESO, 0.1 ug/ml
[16] = target: Human EphA2 (ephrin receptor A2), native, in human tumor tissue (human) (UniProt P29317); test: IF tumor tissue NSCLC-SQ, 10 ug/ml
[17] = target: C-terminally His-tagged hEphA2-FN2 (Thr437-Asn534+His tag) (human) (UniProt P29317); test: SPR Biacore T200, 25 C; mIgG2a as immobilized ligand, hEphA2-FN2-His analyte
[18] = target: Human EphA2 (ephrin receptor A2), native, in human tumor tissue (human) (UniProt P29317); test: IF tumor tissue NSCLC-Adeno, 30 ug/ml
[19] = target: Human EphA2 (ephrin receptor A2), native, in human tumor tissue (human) (UniProt P29317); test: IF tumor tissue RCC-papillary, 0.3 ug/ml
[20] = target: Human EphA2 (ephrin receptor A2), native, in human tumor tissue (human) (UniProt P29317); test: IF tumor tissue NSCLC-Adeno, 1 ug/ml
[21] = target: Human EphA2 (ephrin receptor A2), native, in human tumor tissue (human) (UniProt P29317); test: IF tumor tissue ESO, 1 ug/ml

Sequence of Human EphA2 (ephrin receptor A2), native, in human tumor tissue (human) (P29317 25-976): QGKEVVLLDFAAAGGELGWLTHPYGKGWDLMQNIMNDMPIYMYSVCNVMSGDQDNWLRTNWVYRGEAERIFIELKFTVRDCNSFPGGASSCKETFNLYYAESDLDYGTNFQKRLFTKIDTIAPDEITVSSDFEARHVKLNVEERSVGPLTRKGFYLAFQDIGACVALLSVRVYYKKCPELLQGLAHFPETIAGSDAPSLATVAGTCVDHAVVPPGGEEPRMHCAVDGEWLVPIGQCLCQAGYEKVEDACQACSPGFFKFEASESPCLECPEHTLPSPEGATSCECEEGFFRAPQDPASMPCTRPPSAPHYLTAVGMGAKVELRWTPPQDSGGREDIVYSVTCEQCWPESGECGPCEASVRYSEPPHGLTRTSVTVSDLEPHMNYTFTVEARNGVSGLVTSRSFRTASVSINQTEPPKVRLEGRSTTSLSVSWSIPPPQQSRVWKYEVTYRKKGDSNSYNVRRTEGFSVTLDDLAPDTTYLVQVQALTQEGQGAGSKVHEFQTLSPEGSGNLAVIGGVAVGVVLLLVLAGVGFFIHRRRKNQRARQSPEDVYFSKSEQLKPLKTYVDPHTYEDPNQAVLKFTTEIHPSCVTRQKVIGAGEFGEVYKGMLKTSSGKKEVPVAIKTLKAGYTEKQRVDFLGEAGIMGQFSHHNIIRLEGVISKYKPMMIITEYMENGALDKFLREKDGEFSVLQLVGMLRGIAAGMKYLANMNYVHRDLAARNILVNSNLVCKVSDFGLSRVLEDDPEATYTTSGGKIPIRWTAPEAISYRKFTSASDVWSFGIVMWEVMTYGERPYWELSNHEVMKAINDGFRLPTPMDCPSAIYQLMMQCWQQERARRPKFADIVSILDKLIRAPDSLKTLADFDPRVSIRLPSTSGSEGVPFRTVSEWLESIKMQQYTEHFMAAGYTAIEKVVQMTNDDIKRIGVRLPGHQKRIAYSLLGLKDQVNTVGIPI
Sequence of C-terminally His-tagged hEphA2-FN2 (Thr437-Asn534+His tag) (human) (P29317 437-534 limits assumed): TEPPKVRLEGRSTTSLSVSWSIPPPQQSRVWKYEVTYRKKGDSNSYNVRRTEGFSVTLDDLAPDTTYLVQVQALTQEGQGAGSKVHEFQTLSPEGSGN

A tissue reactivity score [1] of 1, a tissue reactivity score [2] of 1 and a tissue reactivity score [3] of 2 were found for “AB-010018 (mouse monoclonal antibody precursor of DS-8895a; mouse IgG2a format)” in this work. For the same substance, the tissue reactivity score [4] was 1, the tissue reactivity score [5] was 2 and the tissue reactivity score [6] was 2. It also gave a Reactive (% of samples), Bladder Cancer (Urothelial) [7] of 86%, a Reactive (% of samples), Breast Cancer [7] of 79% and a Reactive (% of samples), Cervical Cancer (Squamous) [7] of 100%. The Reactive (% of samples), Esophageal Cancer (Squamous) [7] was 33%, the Reactive (% of samples), Head & Neck Cancer (Squamous) [7] was 87% and the Reactive (% of samples), Liver Cancer (HCC) [7] was 82%. It also gave a Reactive (% of samples), Non-Small Cell Lung Cancer [7] of 90%, a Reactive (% of samples), Ovarian Cancer [7] of 88% and a Reactive (% of samples), Renal Cancer [7] of 47%. The Reactive (% of samples), Soft Tissue Sarcoma [7] was 20%, the Reactive (% of samples), Stomach Cancer (Adenocarcinoma) [7] was 88% and the Reactive (% of samples), Testicular Cancer [7] was 56%. For the same substance, the Reactive (% of samples), Thyroid Cancer [7] was 31%, the Reactive (% of samples), Uterine Cancer [7] was 92% and the Reactive (% of samples), Bladder Urothelial Carcinoma [8] was 77%. For the same substance, the Reactive (% of samples), Breast Cancer [8] was 93%, the Reactive (% of samples), Cervical Squamous Cell Carcinoma [8] was 75% and the Reactive (% of samples), Colorectal Adenocarcinoma [8] was 85%. For the same substance, the Reactive (% of samples), Head & Neck Squamous Cell Carcinoma [8] was 63%, the Reactive (% of samples), Liver Hepatocellular Cell Carcinoma [8] was 39% and the Reactive (% of samples), Melanoma [8] was 46%. The Reactive (% of samples), Ovarian Cancer [8] was 71%, the Reactive (% of samples), Soft Tissue Sarcoma [8] was 14% and the Reactive (% of samples), Stomach Adenocarcinoma [8] was 88%. For the same substance, the Reactive (% of samples), Testicular Cancer [8] was 17%, the Reactive (% of samples), Thyroid Cancer [8] was 13% and the Reactive (% of samples), Uterine Cancer [8] was 38%. The tissue reactivity score [9] was 2, the tissue reactivity score [10] was 2 and the tissue reactivity score [11] was 2. The tissue reactivity score [12] was 2, the tissue reactivity score [13] was 2 and the tissue reactivity score [14] was 2. The tissue reactivity score [15] was 1, the tissue reactivity score [16] was 1 and the Kd [17] was 4.3 nM. For the same substance, the koff [17] was 0.0021 s⁻¹, the kon [17] was 490000 M⁻¹ s⁻¹ and the tissue reactivity score [18] was 1. For the same substance, the tissue reactivity score [19] was 1, the tissue reactivity score [20] was 1 and the tissue reactivity score [21] was 1.
